Laboratory results taken from patent publication US20010029022.

Experiments:
GST-HPV16 E7 = GST-HPV16 E7 (UniProt P03129)
His-p27 = His-p27 (UniProt P46527)
Sequence of His-p27 (P46527 whole entry, looked up): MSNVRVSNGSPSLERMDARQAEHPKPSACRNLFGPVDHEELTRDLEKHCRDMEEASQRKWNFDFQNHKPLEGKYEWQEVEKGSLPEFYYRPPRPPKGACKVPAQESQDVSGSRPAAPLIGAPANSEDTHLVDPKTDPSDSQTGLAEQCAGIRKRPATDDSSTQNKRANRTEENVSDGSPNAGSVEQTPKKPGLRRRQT

Sequence of GST-HPV16 E7 (P03129 whole entry): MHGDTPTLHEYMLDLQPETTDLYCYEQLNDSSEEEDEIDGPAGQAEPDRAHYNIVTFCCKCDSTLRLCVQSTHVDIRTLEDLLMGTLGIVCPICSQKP

Substance: CDK5 complexed with p25
- H1 phosphorylation by CDK5 complexed with p25, increase over controls (GST-HPV16 E7): a 4.5-fold increase over controls

Substance: cyclin A/CDK2 complex
- Km for histone H1 (cyclinA/CDK2 pre-incubated with HPV16-E7, Michaelis-Menten fit) (histone H1): a Km of 1.1+/-0.2 µM for histone H1

Substance: cyclin E/CDK2 complex
- cyclin E/CDK2 phosphorylation of MBP-HPV 18 E1 (His-p27): The phosphorylation of E1 was completely inhibited by the addition of p27 even in the presence of excess GST-16E7
- cyclin E/CDK2 phosphorylation of purified MBP-HPV 18 E1 fusion protein (GST-HPV16 E7): stimulated 2.3-fold by the addition of HPV 16E7
- cyclinE/CDK2 kinase activity with histoneH1 as the substrate, increase over controls (GST-HPV16 E7): a large increase (26-fold and 13-fold) over controls
- cyclinE/CDK2 kinase activity with pRb as the substrate, increase over background (GST-HPV16 E7): 1.9-fold increase over background
